Data published in the supplement of paper PMC9732359.
± gives the uncertainty stated by the source.

Experiment: protein stability index of a GFP-peptide fusion (yeast GPS) (PSI 1-4); higher = more stable; sorted into four equal gates, so the index is relative within each strain
Conditions: pdr5∆
Summary of the method: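 The protein stability index of a peptide was calculated by multiplying its read frequency in each gate by that gate's number and adding the products. The peptides were tiled 17-residue stretches of yeast proteins, fused downstream of GFP on a Cherry-expressing plasmid and carried in yeast as a pooled library. Mid-log cultures in leucine-free medium were sorted into four equal gates by GFP/Cherry ratio, and each gate's plasmids were PCR-amplified and Illumina-sequenced.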
In the case of GHDADDGYQLFHAEPSG [PUP2], the protein stability index is reported as 2.97 ± 0.18. Work on GIIITDQSNVQYYLSVL [BRR2] yielded a protein stability index of 3.44 ± 0.19.

Same assay, conditions: san1∆
With FEFQYLTIGVKFFMKHG [SRB5] the protein stability index was 1.21 ± 0.066. Work on FEGTDDNEEASVKLDLQ [BRN1] yielded a protein stability index of 3.49 ± 0.096. With FEIDDEHRIRVFFDKRI [RPS6A] the protein stability index was 2.17 ± 0.13. For FEKDLMAYFDENLNRNW [BRN1], the protein stability index was 3.14 ± 0.056. FELSFTGAPPYYYNTKI [YMR129W/POM152] showed a protein stability index of 2.66 ± 0.15. With FERPAVKEEKEDMETQA [RPC53] the protein stability index was 3.2 ± 0.084. For FEVEMILMQQQMMARMA [SRP54], the protein stability index was 2.34 ± 0.15. Sequence FFGPTYYQRLRHMVDDK [RPB2] has a protein stability index of 1.72 ± 0.1. For FGATTNDDKKTEPDKPA [YJL041W/NSP1], the protein stability index was 2.61 ± 0.15. Sequence FGELQFAFLNAMFFGNY [AAR2] has a protein stability index of 2.94 ± 0.067. In the case of FGNSLSNTVNANNYSSN [YDL088C/ASM4], the protein stability index is reported as 3.08 ± 0.072. Work on FGNSSPQLTFTHVANFM [YML103C/NUP188] yielded a protein stability index of 3.04 ± 0.054. Work on FGTGQSTFGFNNSAPNN [YJL041W/NSP1] yielded a protein stability index of 3.1 ± 0.04. With FHAEPSGTFYRYNAKAI [PUP2] the protein stability index was 2.87 ± 0.059. Sequence FHFRAPSRIFYKALRGM [RPL16A] has a protein stability index of 2.27 ± 0.14. Work on FIGRLPIMLRSKNCYLS [RPB2] yielded a protein stability index of 1.17 ± 0.14. FISAARYKPKSHLWEID [RPC37] gave a protein stability index of 2.71 ± 0.067. With FIYGEDGMDAAHIEKQS [RPO21] the protein stability index was 3.38 ± 0.054. FKERQMMVSYPKIDEDD [AAR2] gave a protein stability index of 3.19 ± 0.045. In the case of FKKTLRSRISSPHGLIN [SRB4], the protein stability index is reported as 2.53 ± 0.065. For FKQKLNELLKCKDDVQL [MTW1], the protein stability index was 2.87 ± 0.036. Sequence FKSTESNISDEKSRISE [YMR129W/POM152] has a protein stability index of 2.78 ± 0.12. In the case of FKYRKARLEPGTAIGAI [RPO31], the protein stability index is reported as 2.17 ± 0.1. For FLESSKEIDPSQTTQLA [FAS2], the protein stability index was 2.6 ± 0.084. With FLHESSFDSIDHSWFLL [CSI1] the protein stability index was 2.48 ± 0.072. In the case of FLKKVMDTIQDKLINDV [ECM29], the protein stability index is reported as 2.95 ± 0.2. FLLLAVNKYGLRADKLY [ISW2] showed a protein stability index of 2.62 ± 0.055. FLPRKRAASIRARVKAF [RPL3] showed a protein stability index of 1.15 ± 0.11. Sequence FLQGESPFSITFSVYHE [YMR129W/POM152] has a protein stability index of 2.64 ± 0.047. In the case of FLQPLLLVGLIKTFYWL [NUT1], the protein stability index is reported as 1.5 ± 0.089. With FLTPMDSIDLAPNTLTN [YML103C/NUP188] the protein stability index was 1.98 ± 0.18. FLVRYACEPTAEKFVPI [SIR3] gave a protein stability index of 2.75 ± 0.11. FLYVLIPAGIYWYWWKN [QCR8] gave a protein stability index of 1.62 ± 0.21. With FMDNSYDIDEIDHSDES [ESC2] the protein stability index was 2.66 ± 0.14. Sequence FMLILALFVFYSPNTLG [COB] has a protein stability index of 2.46 ± 0.056. FMRNGLLEGLNEKIEKR [UBP6] gave a protein stability index of 3.21 ± 0.26. For FNATVDETKGFDDNDSG [MED2], the protein stability index was 3.25 ± 0.066. FNDSQAIVCYILFELYK [SRP72] showed a protein stability index of 2.01 ± 0.061. For FNKSAELSRIENEVENI [YCS4], the protein stability index was 3.27 ± 0.06. Sequence FNTFWDEKGNEIKVGKQ [ARP9] has a protein stability index of 2.88 ± 0.089. Sequence FNTNSSFTPSTVPNINF [YOR098C/NUP1] has a protein stability index of 2.54 ± 0.04. For FNYNIFMHDPSVFYNIA [SIR2], the protein stability index was 1.5 ± 0.073. In the case of FPMKQGVLLPTRIKLLL [RPS6A], the protein stability index is reported as 1.17 ± 0.094. With FPMPYENEEFITFLQTL [ECM29] the protein stability index was 2.4 ± 0.047. For FPRDGKAPEAEQVLSAA [RPL13B], the protein stability index was 2.9 ± 0.069. FPSSETTSLNPIQSKVF [BRR2] showed a protein stability index of 1.79 ± 0.14. FPTTSHESLVTTLLRKK [MED8] gave a protein stability index of 1.72 ± 0.14. FQETLDSTVVYPLPKFP [MED8] gave a protein stability index of 2.95 ± 0.042. Sequence FQFFPKELDALQEKEQL [ISW2] has a protein stability index of 3.04 ± 0.043. FQIEADFIGHNSNINTL [ASC1] gave a protein stability index of 2.35 ± 0.081. With FQYGSRLPTFLKHKSIC [RPP1] the protein stability index was 1.68 ± 0.084. With FQYVIDESSGTSRIDEE [SMC4] the protein stability index was 2.05 ± 0.15. For FRGNISQPKIGYGSNKK [RPL32], the protein stability index was 2.88 ± 0.067. With FRKKRKFELGRQPANTK [RPS8A] the protein stability index was 3.13 ± 0.082. Sequence FRNPTPLLSNYASKINR [RGR1] has a protein stability index of 1.34 ± 0.11. Work on FRTDMLQVADKFFRVKY [SMC3] yielded a protein stability index of 1.77 ± 0.076. FSHLAGGKIINKLGNDP [BRR2] gave a protein stability index of 2.91 ± 0.085. Sequence FSQKEMAFNLLGLLTPE [FAS2] has a protein stability index of 2.18 ± 0.12. Work on FSWISVVNDLVGEKLVV [SIR3] yielded a protein stability index of 3.26 ± 0.072. FTIRGFKQKLNELLKCK [MTW1] gave a protein stability index of 2.93 ± 0.064. FTNELKAELDRYKRENQ [SEM1] showed a protein stability index of 2.98 ± 0.11. Sequence FVAATTNAGYTIELAGG [FAS1] has a protein stability index of 2.9 ± 0.11. With FVCLSCSHIFTSDQKNK [RPB9] the protein stability index was 2.04 ± 0.11. Work on FVHYGEIKNDFIMVKGC [RPL3] yielded a protein stability index of 2.1 ± 0.1. Sequence FVRGDSKIFRFQNSKSA [RPL24A] has a protein stability index of 2.31 ± 0.059. FVSRPDRTMLAPMDFAI [FAS1] showed a protein stability index of 2.63 ± 0.11. Work on FVYNKVNETEAILYTKP [YGR119C/NUP57] yielded a protein stability index of 2.74 ± 0.056. Sequence FYLMVSSLSFGPENALN [YJL039C/NUP192] has a protein stability index of 1.39 ± 0.12. For FYMKKDAVEGVSECIIL [RPO31], the protein stability index was 2.86 ± 0.14. Sequence GAAANNNDQKRQQAYKT [YJL041W/NSP1] has a protein stability index of 3.09 ± 0.042. GAAFKVISNLVPKLESS [YJL039C/NUP192] gave a protein stability index of 2.58 ± 0.24. GAALKDIEIVRVNKNAP [FAS2] showed a protein stability index of 3.21 ± 0.089. Sequence GAIIGWTRGTGLMSANN [FAS2] has a protein stability index of 3.08 ± 0.091. For GALVDRTQPWSIMPDLY [RPS0A], the protein stability index was 2.87 ± 0.062. In the case of GASGEERLMSRPFGVAL [PUP2], the protein stability index is reported as 2.93 ± 0.073. Work on GAVSLNPSITRLEEESS [RRP4] yielded a protein stability index of 3.07 ± 0.1. GCYFEEKRYDDKLLDFI [CSN12] gave a protein stability index of 3.04 ± 0.066. Work on GDKDTRADIVRNIILEA [ISW2] yielded a protein stability index of 2.09 ± 0.099. In the case of GDLLNAEVQSLFQDGSA [RRP4], the protein stability index is reported as 2.94 ± 0.068. With GDMTNSDAQSNLGSNVR [REC8] the protein stability index was 2.87 ± 0.17. GDNTSDVDMEDRNLTEF [RRI1] showed a protein stability index of 3.27 ± 0.18. Sequence GDPFDYKAQADTFYMNV [RPB3] has a protein stability index of 3.33 ± 0.063. GEHISAIVPGQSISGTL [SWP82] showed a protein stability index of 2.97 ± 0.17. With GELVLDIEVPDVNALKF [SNF12] the protein stability index was 2.77 ± 0.077. GETMWVPIKSSKSGRIF [RPN13] gave a protein stability index of 2.81 ± 0.068. GETRMKMLNEFVKKTSE [SMC2] gave a protein stability index of 2.91 ± 0.068. With GFDIQKSCEPVSISTSV [SIR4] the protein stability index was 1.51 ± 0.27. GFGRKGKAKGDIPGVRF [RPS23A] gave a protein stability index of 3.42 ± 0.052. Work on GFSTGIGDTIADGPTMR [RPO21] yielded a protein stability index of 3.03 ± 0.094. In the case of GGAKSRGVRPYKHIDAS [RPS19A], the protein stability index is reported as 2.93 ± 0.082. For GGDTCSSDGALCMDSSY [POP1], the protein stability index was 1.83 ± 0.082. In the case of GGDWERRNRYKTYYGIH [RPN7], the protein stability index is reported as 1.29 ± 0.13. Work on GGFTNLTSQAPQTTQMF [YDL088C/ASM4] yielded a protein stability index of 3.38 ± 0.077. GGGHVSQVYAIRQAIAK [RPS16A] gave a protein stability index of 2.75 ± 0.053. For GGIETILEHTLFKGTGF [PRP8], the protein stability index was 3.21 ± 0.14. Sequence GGKIINKLGNDPSLNLK [BRR2] has a protein stability index of 1.91 ± 0.072. Work on GGLRPFGVSFIYAGYDD [PRE9] yielded a protein stability index of 2.26 ± 0.11. Work on GGLSGEESIKIYPLIKP [UBP6] yielded a protein stability index of 1.88 ± 0.15. GGTSDMNYLLDNKINEI [CSI1] gave a protein stability index of 3.17 ± 0.059. In the case of GHDADDGYQLFHAEPSG [PUP2], the protein stability index is reported as 3.42 ± 0.079.
